What was measured:
Test in all cases: pull-down binding Z-score (relative to library population); higher = stronger binding
[1] = system: G-clamp-N3 (biotin conjugate); conditions: RNA library: Library-1 (pre-miRNA loops + repeats)
Method in brief: (§1)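 Cy5- or Cy3-end-labelled RNA library (1 μg) was heat-folded in phosphate/NaCl/KCl buffer and incubated 60 min at 25 °C with streptavidin beads carrying 100 pmol biotin-conjugated small molecule. After three washes, bound RNA was eluted in hot SDS and hybridised 20 h at 55.5 °C to a DNA barcode microarray. Binding was scored by subtracting a beads-only control, averaging barcoded replicate probes after dropping highest and lowest, and converting to a Z-score against library mean and standard deviation.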

[2] = system: TO-3-N3-2 (biotin conjugate); conditions: RNA library: Library-2
Method in brief: as §1

[3] = system: TO-N3 (biotin conjugate); conditions: RNA library: Library-2
Method in brief: as §1

[4] = system: TO-3-N3 (biotin conjugate); conditions: RNA library: Library-2
Method in brief: as §1

[5] = system: TO-N3-2 (biotin conjugate); conditions: RNA library: Library-2
Method in brief: as §1

Sequence | pull-down binding Z-score [1] | pull-down binding Z-score [2] | pull-down binding Z-score [3] | pull-down binding Z-score [4] | pull-down binding Z-score [5]
CAUCCCGGACGGCCUGUGAGGGAUG [hsa-mir-4787] | 1.57 | 0.0114 | 1.1 | 0.8 | 0.952
UGCUUGAUCCAUAUGCAACAAGGCA [hsa-mir-103b-1] | -0.604 | 0.244 | 0.57 | 0.453 | 0.715
GCUAGUGCUGGCUCAAUGCAAUGC [hsa-mir-502] | -0.151 | -0.0546 | -0.0527 | -0.322 | 0.637
CCUCACCUGCUGAGAG [hsa-mir-3670-3_3670-2_3670-1_3670-4] | 0.409 | -0.133 | -0.143 | -0.258 | 0.19
UGUUGGGGGGACA [hsa-mir-4262] | -0.216 | 1.63 | 1.67 | 2.24 | 0.707
UGUGGCAGUGGCAGAGGUCGCUACA [hsa-mir-6856] | 1.12 | 0.0517 | 0.704 | 0.436 | 1.13
AGGCUGGUCUCAAACUCCU [hsa-mir-5096] | -0.82 | -0.228 | -0.0712 | -0.118 | 0.128
UGUUGGUUGAAGAUGCCUUUCAACA [hsa-mir-552] | 0.0946 | -0.396 | -0.937 | -0.807 | -0.598
UGCAAAUGCAAAGUUGGCUUUUGCA [hsa-mir-3680-2_3680-1] | 1.8 | -0.253 | -0.954 | -0.669 | -0.878
CUGCUCUCCCUGGCAGCAAG [hsa-mir-7109] | 1.5 | -0.0188 | 0.283 | -0.207 | 0.6
AGGGGUCAUAUCUCUUCUCAGGGAAAGCAGGAGCCCUUCAGCAGGGUCAGGGCCCCU [hsa-mir-6891] | 1.5 | 0.263 | 0.761 | 0.705 | 0.317
AAGAGGUAAGAAGAAGUGAAGCCCUCUU [hsa-mir-4778] | -0.836 | 0.35 | -0.292 | -0.393 | 0.281
CAAGGGCUCUCCUGAAAGGACAGUAGAGCCCUUG [hsa-mir-4776-1] | 0.88 | -0.0552 | 1.18 | 1.31 | -0.109
GCAGUCCUGUGGGAAUGAGAGAUGCCAAACUGGACCUGC [hsa-mir-3972] | 1.52 | 0.373 | 1.4 | 0.53 | 1.38
AGCUGUGUUUUCUGACUCAGUCAUAAU [hsa-mir-365b] | -0.674 | -0.263 | -0.26 | -0.26 | -0.505
CUUCCCAUUUAAAAGUAAUGGCACA [hsa-mir-603] | -2.03 | 0.425 | 0.861 | 0.893 | 0.104
AGAUAGUGAAGUAGAUUAGCAUCUACU [hsa-mir-18a] | -0.59 | 0.201 | -0.387 | -0.484 | 0.0251
ACGUGACCUCCUGGGCCUG [hsa-mir-6770-1_6770-3_6770-2] | -0.342 | 0.131 | 0.829 | 0.505 | 1
GUGUACAGGGAGGAGACUGUACGUGAGAGAUAGUCAGAUCCGCAUGUUAGAGCAGAGUCUCCUUCGUGUACAG [hsa-mir-4441] | 0.459 | -0.183 | -0.184 | -0.779 | 0.631

Sequence | pull-down binding Z-score [1] | pull-down binding Z-score [2] | pull-down binding Z-score [3] | pull-down binding Z-score [4] | pull-down binding Z-score [5]
CUGACCCGUUGUCAGACCUGGAAAAAGGGCCGGCUGUGGGCAGGGAGG [hsa-mir-4761] | 1.11 | 5.16 | 4.2 | 4.77 | 3.86
UUGAUUCAGUAAAACAUUCAA [hsa-mir-891b] | -0.189 | -0.0671 | -0.695 | -0.376 | -0.902
AACAGGACCUGUGCUCACUGGGGCCUGCA [hsa-mir-6797] | -0.344 | 0.298 | 1.02 | 0.406 | 1.55
GGUUGGCCGCUGACCCCCGCGGGGCCCCCGGCGGCC [hsa-mir-3195] | 0.0226 | -0.293 | 0.0623 | -0.103 | 0.847
AGGAGGGUCC [hsa-mir-3141] | -0.0548 | 0.356 | 0.766 | 0.419 | 1.02
UUGUGUAUGUACUUAGCUGUACUAUA [hsa-mir-1244-1_1244-4_1244-2_1244-3] | 0.509 | -0.417 | -0.627 | -0.689 | -0.486
ACUCCCAGAACUCAUUAAGUUGGUAGU [hsa-mir-1278] | -0.174 | -0.184 | -0.188 | -0.0721 | -0.482
UUGUGAAACACAGGUGUUUUUUAACCUCAC [hsa-mir-6841] | -0.237 | 0.0964 | 0.172 | 0.199 | 0.257
GUAGAUUGAAAGCCCUAAUUUUAC [hsa-mir-3941] | -0.805 | 0.306 | -0.0427 | -0.486 | 0.452
CUGGGAGGUGUGAUCCCGUGCUUCCUGG [hsa-mir-3689b] | -0.593 | -0.408 | -0.713 | -0.788 | 0.409
UCCCCUCAGGA [hsa-mir-5703] | 0.99 | -0.595 | -0.256 | 0.0295 | -0.802
AUGCACCCAUAUUUUAAUAUCAAACUAUGACAAAUU [hsa-mir-3974] | -0.337 | -0.134 | -0.417 | -0.386 | -0.358
AAUGACUCAUAGUCAA [hsa-mir-4475] | -0.88 | -0.157 | 0.374 | 0.512 | -0.666
GGGCAGGGAGGGCAGGGCAGGCUCUGGGGUGGGGGGUCUGUGAGUCAGCCACGGCUC [hsa-mir-4516] | 2.89 | 7.72 | 6.16 | 6.78 | 4.69
CCGGGGCAGGAGACCCCGCG [hsa-mir-1470] | -0.305 | -0.34 | -0.351 | -0.389 | 0.265
UUGCUCUUUGGUGGAGAUA [hsa-mir-6074] | 0.646 | -0.00756 | 0.505 | 0.509 | 0.241
GGGUGGGCGGGGGCGGCCGGUGGGAACCCCGCCCCGCCCCGCGCCCGCACUCACCC [hsa-mir-7108] | 0.489 | 6.86 | 5.22 | 6.31 | 4.08
CAACUACUCAGGAGGCUG [hsa-mir-566] | -0.123 | -0.179 | 0.0834 | -0.196 | 0.304
CAGUGGUGCCAUCUCCCCUG [hsa-mir-5008] | -1.49 | -0.353 | -0.122 | -0.377 | 0.471

Sequence | pull-down binding Z-score [1] | pull-down binding Z-score [2] | pull-down binding Z-score [3] | pull-down binding Z-score [4] | pull-down binding Z-score [5]
CCGAGUGAUCUCGGU [hsa-mir-8071-1_8071-2] | -1.48 | -0.324 | -0.685 | -0.581 | -0.0845
CUACUAGUUUGUAGUAGUUCGUAGCAG [hsa-mir-3919] | 0.56 | 0.295 | -0.197 | -0.438 | 0.637
CUCAACUCUUGGUCCUCUGAG [hsa-mir-3165] | -0.955 | 0.0789 | -0.316 | -0.385 | 0.545
AGGUAGUGAUAUGUGCAUCUACU [hsa-mir-17] | -0.805 | 0.142 | 0.31 | 0.0812 | 0.759
CAAAACUCCGUACAUUGCUAUUUUGC [hsa-mir-3064] | -0.316 | 0.0575 | -0.39 | -0.563 | -0.105
UUUUCUGGGA [hsa-mir-4456] | -0.606 | -0.103 | -0.484 | -0.426 | -0.251
UGGGUGGAUCCUCUAUUUCCUUACGUGGGCCACUGG [hsa-mir-432] | 0.632 | -0.013 | 0.729 | 0.45 | 0.845
CUGUUGUGCCUAAUUCAGAG [hsa-mir-296] | -0.279 | 0.0218 | 0.0489 | -0.165 | 0.492
CCGGGUGCCCACAAGACUGUG [hsa-mir-3138] | -0.253 | 0.469 | 1.01 | 0.49 | 2.06
AUUAGACAGAAAAAAGUUAGACACAAAAAAUUGUGUCUAAU [hsa-mir-4759] | -0.0386 | 0.561 | 0.136 | 0.284 | -0.525
GACAUGCUCUGACUCCCCUGAUGUC [hsa-mir-6852] | 0.588 | 0.244 | 0.286 | -0.0796 | 1.18
CAUAUGUAUGUAUGUAUGUCUGUUACACAUAUG [hsa-mir-3688-1] | -0.787 | -0.0225 | -0.818 | -0.769 | -0.421
ACAGAGUGAGAUGGUCUUGUUUUGU [hsa-mir-5684] | 0.00683 | -0.409 | -0.673 | -0.542 | -0.546
GUCAUUACUUUCAAUAGC [hsa-mir-548p] | 0.0268 | -0.254 | -0.684 | -0.59 | -0.372
CUUGGCACCUUUGGCCUUAG [hsa-mir-4540] | 0.795 | -0.125 | 0.112 | 0.0499 | -0.0687
GCAAUCAGGACUGGGUCAUUC [hsa-mir-6873] | -0.628 | 0.166 | 0.572 | 0.38 | 0.291
CACUCAGUAAAUAUUUGUUGAGUG [hsa-mir-1271] | 0.231 | -0.186 | -0.674 | -0.368 | -1.18
GGACCCUCUCUCUACCUCU [hsa-mir-4315-1_4315-2] | -0.489 | -0.12 | -0.188 | -0.211 | 0.0855
